First the molecules themselves.
B1: TPR t1 (parent)
chain: GACCAAUCUGCCCUCAGAGCUCGAGAACAUCUUCGGAUGCAGAGGAGGCAGGCUUCGGUGGCGCGAUAGCGCCAACGUCCUCAACCUCCAAUGCAUCCCACCACAUGAUGAUGCCUGAAGAGCCUUGGUUUUUUG

Variants of B1 are the subject of the data set. Put plainly: polymerase ribozyme fitness, log enrichment relative to wild type (log ratio); higher = more active; in vitro selection for triplet polymerase activity. Put shortly: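 In triplicate, a single round of in vitro selection was run on each mutant library, PCR-built and transcribed, covering one subunit of a heterodimeric triplet polymerase ribozyme. Frozen incubation at −7 °C followed annealing with a biotinylated primer, partner subunit and triplets, and extended constructs were then gel-excised, streptavidin-captured and taken through RT-PCR. Fitness is the logarithm of genotype enrichment over wild-type enrichment, from inverse-variance-weighted replicate averages of Illumina-sequenced inputs and outputs. […] only genotypes with ≥10 input reads and ≥1 read per output were kept.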
Turning to C4U C11A G51C, the “polymerase ribozyme fitness (log ratio)” value was -4.83.
Under C4A U7A G110U stands -2.4; under C3U G48U U54G G120C, 0.141; under C4U C8G C13A U21G G77U C82A A84U A121C, -0.469.
Turning to C3U G69A, the “polymerase ribozyme fitness (log ratio)” value is -2.67.
Consider C4G C22G G42A C53G, for which the “polymerase ribozyme fitness (log ratio)” value is -4.26.
As for C4G U9G A41G, the “polymerase ribozyme fitness (log ratio)” value is -1.21.
Regarding C4A G60A, the “polymerase ribozyme fitness (log ratio)” value is -0.949.
Under C4G A66G C115A stands -2.94; under C4A A46U C88U U92A U116C, -6.04.
Consider C3U G60A C82A U106A G120A, for which the “polymerase ribozyme fitness (log ratio)” value worked out at 0.775.
Under C4G G61A U87G stands -2.28; under C4A A27U, -3.57.
As to C3U U130G, the “polymerase ribozyme fitness (log ratio)” value was -0.624.
With C4G A46U C53A C72A C86A, the “polymerase ribozyme fitness (log ratio)” value is -2.23.
C4A G93A G120C U126G: the “polymerase ribozyme fitness (log ratio)” value is -1.92.
Under C4U C11A A50C C85U U112C stands -1.65.
Under C4G C40U A66C C86G C97A C115G stands -6.24; under C4G C12A U87G C115U, -3.74.
Under C4A C124A stands -0.256; under C4G U32A G71U A121C U129A, -4.53; under C4G C15A A16U C53A C72U U78C C115U, -3.84.
As to C4G A5G C53A C89A G113U C114U G122U U129G, the “polymerase ribozyme fitness (log ratio)” value was -4.07.
Under C4A A29G C88A stands -3.39; under C4A A6C C11G C40U G110U, -4.57.
As for C3U U7G A111U, the “polymerase ribozyme fitness (log ratio)” value was -1.66.
Under C4U A46U A95C stands -2.04; under C3U G113C, -2.47.
Under C4G A50U G61U stands -2.2; under C4U A68U A100U G117U, -5.92; under C4G C11G G39A, -1.72.
Take C4A C73A U81A: the “polymerase ribozyme fitness (log ratio)” value is -3.04.
Under C4G G36A A43C G45U C124G stands -4.47.
Under C4A A121U U129G stands 0.901; under C4A C80A, -5.24; under C4G U54A G60C, -1.88.
Consider C4G C13U U33G G39U G44A C82U U112A, for which the “polymerase ribozyme fitness (log ratio)” value is -4.58.
Regarding C4G C13G, the “polymerase ribozyme fitness (log ratio)” value was -3.83.
Regarding C4G C13A, the “polymerase ribozyme fitness (log ratio)” value is -3.23.
Under C4A C88A stands -1.56; under C4A C88U, -1.68.
Consider C4A C72G G77A G120A, for which the “polymerase ribozyme fitness (log ratio)” value was -1.74.
Under C3U U9A A27G G42U A100U U133A stands -3.45; under C4U A27U C72U, -2.49; under C4G A43U A46G G113A, -3.76.
Under C3U U96A stands -1.12; under C3U U92G G117U A119U, -5.83; under C4A G120U, -1.6.
With C3U G51U C80U, the “polymerase ribozyme fitness (log ratio)” value was -2.32.
Under C4G U87G stands -1.54.
For the variant C4U A6G G39A C72A C85A A90G C114U, the “polymerase ribozyme fitness (log ratio)” value is -3.29.
Under C4G U9G A41G U96C A111C U116A C123G stands -1.71; under C4G G135U, -2.5.
Under C3U G110C stands -4.17; under C4G A37G C53U A111C, -1.68.
Under C4G C123G G128C stands -0.896; under C4G C15U, -2.66.
For C4A G61C, the “polymerase ribozyme fitness (log ratio)” value was -3.08.
Under C4U A18C A29G C56A stands -4.17.
For the variant C4G U7G C8G G71A C98G A103C C114A G122U, the “polymerase ribozyme fitness (log ratio)” value was -5.04.
Under C3U U125A stands -1.04.
Consider C4G C8G C11A U14G C124U, for which the “polymerase ribozyme fitness (log ratio)” value was -0.919.
Under C4A G36A stands -2.02; under C4A C80A C101U A121G, -1.22.
Under C3U G77A A121U stands 2.03.
Under C4A A27G A75G G120U stands -4.55; under C4A C13U C40A G52A C104U, -2.23; under C4G C13U U21C C62G G120U, -2.48.
Take C4A C34A G71U: the “polymerase ribozyme fitness (log ratio)” value was -4.3.
Consider C4A C12A C86G G120U G128C, for which the “polymerase ribozyme fitness (log ratio)” value is -1.61.
Under C4G U9C G57A G63C C79A A84C C89U stands -4.8.
Under C4A C8G G36U G45U G69C U78A C114U stands -5.25; under C4G C34A C72G, -5.9; under C4G C56A U59G C104U A111U C123U, -4.15.
Under C4G G10C C115U stands -3.25; under C4G C80U C89G, -4.61.
Regarding C4A G48U G120U, the “polymerase ribozyme fitness (log ratio)” value was -3.84.
Under C3U U9A C73A C79A U92G stands -3.38.
Under C4G G44A A46U U59C stands -3.73; under C4G A5C C82U U125A, -1.74; under C4U A16C C64U, -4.16.
Under C3U U78C A105C C124U stands -1.78; under C3U G69U C94G C114A U125A, -3.19.
Take C4A C56G C102U: the “polymerase ribozyme fitness (log ratio)” value was -4.
For C3U U9G G19U G58C, the “polymerase ribozyme fitness (log ratio)” value was -3.13.
Under C4A G110U stands -3.24; under C4A G69U A74G A90U U106A G117C, -4.9; under C3U U112G C114A, -3.78.
Under C4G U106C C115G stands -4.76.
Turning to C4G A27G A29G, the “polymerase ribozyme fitness (log ratio)” value is -5.02.
Under C4G A18C A46G A83U G128A stands -5.74.
Under C4U A6G C13G A83G stands -1.95; under C3U U14G A26U G60U C123A, -4.1; under C4G G61U, -1.
Under C4A C115U G120A U131A stands -5.05; under C3U U112C, 1.51; under C4G C8G C53A U112G G120A, -2.51.
For the variant C3U G122A, the “polymerase ribozyme fitness (log ratio)” value was -1.01.
In the case of C4U A5U C31G G45U U54A A68U G110A C114U, the “polymerase ribozyme fitness (log ratio)” value is -6.24.
Under C4G G39U A46C C72A U87G C88G stands -3.06; under C3U G47A G60A C85G C123U, -2.64.
Consider C3U U38G C62U G120A A121G G122A C123G U125C, for which the “polymerase ribozyme fitness (log ratio)” value is -0.77.
Under C4G C12A C40A C72U G77U stands -3.43; under C4A C13A G17A C22U A27G A46C G52C, -6.56.
Under C4G C8A C20G A111C C123G stands -4.96.
Under C4G U32C G45U stands -3.28; under C4A G63A, -1.65; under C3U G71U A121G U125A, 1.49.
Turning to C4U A41U G44A G45A C53U G63C, the “polymerase ribozyme fitness (log ratio)” value was -6.08.
C3U U87A A103C: the “polymerase ribozyme fitness (log ratio)” value was -5.54.
Under C4U A43U C88U U92G stands -2.04.
Under C3U G120C stands 0.705; under C4U A16U G42U U59G A84U, -4.24; under C4G G51U G120U, -4.56.
Turning to C4A A5C C13U G128C, the “polymerase ribozyme fitness (log ratio)” value was -1.73.
For the variant C4A G51U C70A A84C G113U C114U G128A, the “polymerase ribozyme fitness (log ratio)” value was -6.15.
Under C4U A90G stands -0.325; under C3U G69U C98A G113A, -1.77; under C4U A16G C49U G69U G113U, -2.65.
As to C4U C8G G47C C123A, the “polymerase ribozyme fitness (log ratio)” value is -0.0311.
With C4G A50C C115U, the “polymerase ribozyme fitness (log ratio)” value is -4.34.
Under C4G A111G stands -1.57; under C4U A24U C70G U92G U116C G120C, -6.86.
For C3U U21A A41G G48U C101G C124G, the “polymerase ribozyme fitness (log ratio)” value is -1.96.
For the variant C4A A18G C40A C114A A119G, the “polymerase ribozyme fitness (log ratio)” value was -3.79.
Under C4G A27U G45A G61A C86A C97A G117A stands -6.02; under C4G U78C C88U C94G C124U, -2.42; under C4U A37U U38A A46G A50G, -2.72.
Turning to C4G C72U, the “polymerase ribozyme fitness (log ratio)” value is -1.37.
Under C3U U9C C49A G69A C115A stands -0.734; under C4G G57C C89A C123A, -3.43.
Under C4G G113U stands -3.96; under C4G C13U C53U A68G C115G A121U, -1.92; under C4G G45A, -2.31.
Under C4U C11A G61U C98U G113A U126G stands -5.59.
Turning to C3U U7A A37C C98U, the “polymerase ribozyme fitness (log ratio)” value is -2.2.
Under C4G C12U C97A U112C stands -2.59.
Under C4G G44C C62U stands -2.44.
With C4G U9A U112G G117U, the “polymerase ribozyme fitness (log ratio)” value is -2.18.
On to C4A A46U C53G U130C, for which the “polymerase ribozyme fitness (log ratio)” value was -2.39.
Under C3U U92C stands -1.23; under C3U G69U G113C, -1.33.
Under C4U A41G stands -0.698; under C4A G36U C70U, -3.69; under C4U A43G G47U C53U G61U, -3.38.
Under C4A C13A A27C C123G stands -3.14; under C3U U38A G69U U109A, -2.41; under C3U G60A G77U G117C, -3.58.
As to C4U A27G, the “polymerase ribozyme fitness (log ratio)” value is -2.96.
Under C3U G44C C114A A119U G122C stands -3.33; under C4G C15U U96A G127C, -2.26; under C4G G71U, -1.92.
With C4U C8G U9C C11G C62G, the “polymerase ribozyme fitness (log ratio)” value was -0.314.
In the case of C4U A43U, the “polymerase ribozyme fitness (log ratio)” value was -2.23.
C4A G52C A74C: the “polymerase ribozyme fitness (log ratio)” value was -2.47.
Under C4A C13U C15G A37C G113A A121C stands -6.02.
For the variant C4U A27C U54C C82A, the “polymerase ribozyme fitness (log ratio)” value was -3.17.
For C3U G57A C72U, the “polymerase ribozyme fitness (log ratio)” value is -0.755.
Under C4G C80U stands -1.83; under C4A U9A A43U C56A A83C U126A, -4.76; under C4G C70G, -3.78.
Under C4G A16C C82U G120C C124A stands -3.01; under C4U A18U U55G C86U, -2.79; under C3U U7G C20U U21G C73U G110U C124G, -4.5.
Turning to C4A A46C, the “polymerase ribozyme fitness (log ratio)” value was -3.07.
Take C4A A46U: the “polymerase ribozyme fitness (log ratio)” value was -2.61.
As for C4G A37U, the “polymerase ribozyme fitness (log ratio)” value was -1.82.

For the origin of these results see the RNAGym collection of RNA variant scans (doi:10.1073/pnas.2313332121).
